# Assay results from the DeepSol protein solubility set.
# Experiment: soluble on expression in E. coli; label from the status in PepcDB or PDB records
row,Sequence,soluble on expression in E. coli
1,MNSTYQLFIDVTSRKCILAIYKNFKIHTSIIVDTNNNLTDIIVEHLNNLLKITNLQYQDLEAIYLNTGPGSFTGIRVGAIVAKTICTIFNKIKLFINDSLNIIANGKNDVFVYLDAKGNKSYVITITNNIQNEYKIITNKELQNELKNTSLTIIDANQIDYHDLIYNLKFDNFKLTNILDFRLNYVKKPLNLEHHHHHH,not soluble
2,MGSDKIHHHHHHMRLIGLTDLHNRIINFDKLLRYKPDAILISGDFTKCSFAKSANQNDSFEVITEQDTRIIDFLENLNNKIKVFIIPGNWENLDTIQKMNESGLNIDEKLVKFHDTIFIGLGGSNKTPICSPNEYSEDEIYERFIKILKNEKTDVKNNFILLSHVPPKDTMADRCEAGHVGSSAVRKIIEEFKPVLCACGHVHESRSIDKIGNTLIVNPSSTGFFIYDTKTKNLEIHDL,not soluble
3,MSIEKLKAALPEYAKDIKLNLSSITRSSVLDQEQLWGTLLASAAATRNPQVLADIGAEATDHLSAAARHAALGAAAIMGMNNVFYRGRGFLEGRYDDLRPGLRMNIIANPGIPKANFELWSFAVSAINGCSQCLVAHEHTLRTVGVDREAIFEALKAAAIVSGVAQALATIEALSPS,soluble
4,MGSDKIHHHHHHMNSNPFVSVVMSVYNGGEFLKDAINSILSQSYKNFEFIIINDGSSDNFSEILELYDDERIKVLNNQENKGLVYSLNRGLLESIGKYIVRMDADDISLPNRIEKQVEFMEREPEVGVCGSYIEIFGDTIKRKVQRFPSNVNVNEAFLLFSTCLAHPSVIIRKSIVDKYKLRYDDRYLHAEDYAIWCQAVKYTKISNIREVLLKYRILESSVTRQANKNFQSRFDVHKSIYKDIFRNKGIDYTEKELYLHFIISDNNRFRNQALTIRPSEINAHLTKILSHYRGASNYKYIAFLVNKRGLSLSRWYSESRGFYFIMYLFKFLYYKIQIKK,not soluble
5,MFPQADEPERDTLPGQEEDPLPTGQEQPSITPIAGTEAQYIDIAEWYDSDSILYITDEGENSLVYIYNLLTGEKKSLFSSDDAVIKVTANSTHSQFAIQTVTQAGDAPVSIIDSQGELLMKLEDFGEDFSIFWSPYEEDKLIAVAYLPDWEQDLYLIDTSDKQVEMLDLDQSFVQWLDERTIVYLDWNGDSEGYYAPLYTFDLETEEVVLLHEEAIATLGFGDHVTLIIERPEQGAEVTTYQFWNGSEQLAEWSVPILRTYSEQWWIPFYDFDLNKRLFYAYKPNRTGDYFEYDGGFSFIAFDVDHGEETVLFESDEHVPFRLSPTGQRALFGPRLETVMDLPTGESNSLIE,not soluble
6,MVQQKVEVRLKTGLQARPAALFVQEANRFTSDVFLEKDGKKVNAKSIMGLMSLAVSTGTEVTLIAQGEDEQEALEKLAAYVQEEVLQ,soluble
7,MVESENKDIEESGAEVDRRDVRSLVRKLSDNNWEIPKGHIPNMRVPGRLFVSEKLLEGIEPGTIDQIANVATLPGIQKYSMAMPDAHLGYGFAIGGVAAFDVEEGVISPGGVGFDINCGVRLIRTNLQKEDVVPHIKRLTDELFSNVPSGVGSKSRFKASDKELDSAFLEGAKWAVDAGYGVEADVEHCEGNGFLEGADTSHVSSKARNRGKPQLGTLGSGNHFLEVQYVDEIYDPEVASAFGLEEGQVTVMVHCGSRGAGHQICTDHLKELSQAVKRYGIEIPDKQLACAPAQSKEAQNYFKAMLCAANYAWANRQMITHWTRESFEKIFGRDADDMEMSLLYDVAHNVAKLEEHSIEGRKKEVYVHRKGATRAFPAGHPEVPSAYRDVGQPVLIPGSMGTPSFILCGSTESMDVSFGSACHGAGRVMSRAHAKKEFHGQSIKEDLEAHGITVRATHPSVIAEEAPGVYKSSSEVVNVVHELGIARKVARVIPLGVAKGLEHHHHHH,not soluble
8,MAHHHHHHMKLNIAYPRNGTVKQFEISDEVLRRVQLQDYRLGNEVDGAIFGSEFKGYIFRLRGGSDKDGFPMVPGVLASSRVSLLVKRGAIGFNTFRGYQGERRRKNVRGCVLASDIALVNVTISKVGDQPIEGVTDTTAPRRLGP,not soluble
9,MISDSKLLASAAWDAQSLNELKAKASEDPAANIRPVARQVEGMFVQMMLKSMRDALPKDGLFSSEHTRLYTSMYDQQIAQQMTAGKGLGLAEMMVKQMTPEQPLPEESTPAAPMKFPLETVVRYQNQTLSQLVQKAVPRNYDDSLPGDSRAFLAQLSLPAQLASQQSGVPHHLILAQAALESGWGQRQIRRENGEPSYNLFGVKASGNWKGQVTEITTTEYENGEAKKVKAKFRVYSSYLEALSDYVGLLTRNPRYAAVTTAASAEQGAQVLQDAGYATDPHYARKLTNMIQQMKSISDKVSKTYSMNIDNLF,not soluble
10,TGTAIYFIHGTADQPAAFKRVAERLIDTGLPDEICSLNLLAFDQRYQGKSIKFFAEQLKNKIKVNQHQRVILMAHSRGGLVASYFAEFLAKEASIDVPLVITMGTPFNGSYLAVKPLSWFSDSIREMEINSEFLAQLKQEIVEHSVSAYHFFIAKEDAIVPGESGYIKDYVDKYPESLHILDRHGHLSIMSSHRLVSHISSLLHDYIDDY,not soluble
11,MDINKLKLTPDSSIKEALKIVGQERVRLGIIVDKKDKFLGVISDSNIRKALISGKTLKDSIKDIYTKNPITIKENTSKEQLLKISAKTDIYDFPVLDEKGQILSIKSISSLLKANPNSIIIMAGGLGSRLKELTKDTPKPMLKVGKKPILESIIQRLKNQNFENFIFCVNYKKQIIEDYFQKGQKFGVKISYIKERKKLGTAGALSLIKQEFKESFIVMNADILTELDFNALLKAHKKSKALMSVCVREFEQQIPYGVITQKQGFIENIEEKPTQKFLVSAGIYVLENEILNLIAKNEYLDMPELIKLVLQKGKVNTYIINDYWIDIGRPDEFLKANEDFKLEHHHHHH,soluble
12,MSLIKLYDNYVFISQEGGESGERLYSKKFREKSVVDVSGLRIGEGLVVAAGPCSVENEAMILDIARSVKAAGADMIRGGAFKPRTSPYSFQGLAEKGIEYLVEAREETGLPIVTEIMNPEYYRYFDRVDMLQVGSRNAQNFDLLRFLGKQKKPVLLKNGMGNTAREWLETAEYILSGGNGNVVLCYRGVRGIENSTRFTMNVGSIIYAKSETHLPICADPSHASGRRDFVESMALASVAAGADMLEIEVHNDPDNALSDSEQQIRPVDLKRIIEKARALKDLLSHEIEGHHHHHH,not soluble
13,MAHHHHHHMPGSLKVQTGRGDARKTVKKTVLSKGNITRSDEPAGVADSAASASVAKSSSTTASTLTIAVALSMCEQERAVEAVKETIPASASREVLRKDPIYRIMHALPRSDVLEVVRSRFEKPHCERAAAYFDLSYMKNPLRHLRLQLGCDGPTGIYLFFRRIAAHRHTLRVVDFSRNRLSADDAVLICNTLGLGVAGDVATAPGTTKASSAGAVADSTVSTAVGASAQPASSLELLDLSYNAKLGNDGAVHVVRAVRRLPSIRAVILKSVGIDDAGAVAMADVVRRWPAPALCANSAAPHALLRPVTASATKFYLNLNENYIGARGTDVLGKGLPHYVSLTLAKQQPDPARDRKRSRDDDGAACR,not soluble
14,MSLQNADRLSREYVAGVNFLLSNQQDKAVDLFLEMLKEDSSAFEAHLTLGNLFRSRGEVERAIRIHQSLMESASLTFDQRLLATQQLGRDYMSAGLYDRAENMFAQLVNEKDFQENAFQSLLTIYQSTSDWKKAIDIAEKLVKSGKHDLREKIAHFYCELALQEMSGDDLDEAIGYLNKAVQADKNCARVSIMLGRLFMARQEYNKAADALKSVLEQDKQLVSEVLPILQECYQHQNQIDEWENFLKRCVEEDCGATAELLLADIIEQQKGHEVAQTYINHRLERHPTMRLFYRLMDYHLAEAEEGRAKESIILLRDMVGEQIRTKPNYRCHKCGFTSHSLYWHCPSCRSWDSIKPIRGLDGQEGHHHHHH,not soluble
15,GPEQVLDRASMHLANGLLGNPDSAAGLEVLLGGLKLRFVSGSAVAVTGAEGMVTLDGTELPLNKAVRVPPGAVLELGPAMFGIRYYLAVQGGISAQGEAAQGEAIRAGAALTFGRPNNHGSPEVNHPARRALDPERPVVARVSRGPQAQNDDAGTWLRLTSEPWILSPESDRAGARLVGRPLDVTSAPIPQAQPLVSGSVLLPSSGLPVIALAGHPDTSQSPVIAVVRDEDLDVLGQARPGQMVHLLG,not soluble
